Results from patent US20160264681A1 (ACCELERON PHARMA, published 2016).
Where two headings read alike, the source gives them in different places.

T1: GDF11 (UniProt O95390 299-407)
T1 sequence (looked up): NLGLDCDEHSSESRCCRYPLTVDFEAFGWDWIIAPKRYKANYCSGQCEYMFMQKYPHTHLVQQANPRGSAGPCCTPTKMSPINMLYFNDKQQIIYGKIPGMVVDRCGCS

T2: Activin A (UniProt P08476 311-426)
T2 sequence (looked up): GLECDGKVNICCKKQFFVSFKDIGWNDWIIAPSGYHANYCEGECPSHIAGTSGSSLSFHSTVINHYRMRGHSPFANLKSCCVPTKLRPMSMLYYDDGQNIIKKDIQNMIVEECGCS


Legend:
Test in all cases: cell-based or functional assay
GDF11 [1] = biological target: T1, GDF11
Activin A [2] = biological target: T2, Activin A
GDF11 [3] = biological target: T1, GDF11; remark: listed apart in the source
Activin A [4] = biological target: T2, Activin A; remark: listed apart in the source

Row | IC50 (ng/mL), reporter gene assay, conditioned media (GDF11 [1]) | IC50 (ng/mL), reporter gene assay, conditioned media (Activin A [2]) | IC50 (ng/mL), reporter gene assay, conditioned media (GDF11 [3]) | IC50 (ng/mL), reporter gene assay, conditioned media (Activin A [4]) | Binder
1 | 60 ng/mL | 43 ng/mL | – | – | ActRIIb-hFc (R64, 23-131) (Fc fusion) EAETRECIYYNANWELERTNQSGLERCEGEQDKRLHCYASWRNSSGTIELVKKGCWLDDFNCYDRQECVATEENPQVYFCCCEGNFCNERFTHLPEAGGPEVTYEPPPTGGGTHTCPPCPAPELLGGPSVFLFPPKPKDTLMISRTPEVTCVVVDVSHEDPEVKFNWYVDGVEVHNAKTKPREEQYNSTYRVVSVLTVLHQDWLNGKEYKCKVSNKALPVPIEKTISKAKGQPREPQVYTLPPSREEMTKNQVSLTCLVKGFYPSDIAVEWESNGQPENNYKTTPPVLDSDGSFFLYSKLTVDKSRWQQGNVFSCSVMHEALHNHYTQKSLSLSPGK
2 | 183 ng/mL | 201 ng/mL | 120 ng/mL | 44 ng/mL | ActRIIb-hFc (R64, 20-131) (Fc fusion) GRGEAETRECIYYNANWELERTNQSGLERCEGEQDKRLHCYASWRNSSGTIELVKKGCWLDDFNCYDRQECVATEENPQVYFCCCEGNFCNERFTHLPEAGGPEVTYEPPPTGGGTHTCPPCPAPELLGGPSVFLFPPKPKDTLMISRTPEVTCVVVDVSHEDPEVKFNWYVDGVEVHNAKTKPREEQYNSTYRVVSVLTVLHQDWLNGKEYKCKVSNKALPVPIEKTISKAKGQPREPQVYTLPPSREEMTKNQVSLTCLVKGFYPSDIAVEWESNGQPENNYKTTPPVLDSDGSFFLYSKLTVDKSRWQQGNVFSCSVMHEALHNHYTQKSLSLSPGK
3 | – | – | 130 ng/mL | 158 ng/mL | ActRIIb-hFc (R64, 20-128) (Fc fusion) GRGEAETRECIYYNANWELERTNQSGLERCEGEQDKRLHCYASWRNSSGTIELVKKGCWLDDFNCYDRQECVATEENPQVYFCCCEGNFCNERFTHLPEAGGPEVTYEPGGGTHTCPPCPAPELLGGPSVFLFPPKPKDTLMISRTPEVTCVVVDVSHEDPEVKFNWYVDGVEVHNAKTKPREEQYNSTYRVVSVLTVLHQDWLNGKEYKCKVSNKALPVPIEKTISKAKGQPREPQVYTLPPSREEMTKNQVSLTCLVKGFYPSDIAVEWESNGQPENNYKTTPPVLDSDGSFFLYSKLTVDKSRWQQGNVFSCSVMHEALHNHYTQKSLSLSPGK
4 | – | – | 87 ng/mL | 32 ng/mL | ActRIIb-hFc (R64, 20-132) (Fc fusion) GRGEAETRECIYYNANWELERTNQSGLERCEGEQDKRLHCYASWRNSSGTIELVKKGCWLDDFNCYDRQECVATEENPQVYFCCCEGNFCNERFTHLPEAGGPEVTYEPPPTAGGGTHTCPPCPAPELLGGPSVFLFPPKPKDTLMISRTPEVTCVVVDVSHEDPEVKFNWYVDGVEVHNAKTKPREEQYNSTYRVVSVLTVLHQDWLNGKEYKCKVSNKALPVPIEKTISKAKGQPREPQVYTLPPSREEMTKNQVSLTCLVKGFYPSDIAVEWESNGQPENNYKTTPPVLDSDGSFFLYSKLTVDKSRWQQGNVFSCSVMHEALHNHYTQKSLSLSPGK
5 | 71 ng/mL | 100 ng/mL | – | – | ActRIIb-hFc (R64, 22-131) (Fc fusion) GEAETRECIYYNANWELERTNQSGLERCEGEQDKRLHCYASWRNSSGTIELVKKGCWLDDFNCYDRQECVATEENPQVYFCCCEGNFCNERFTHLPEAGGPEVTYEPPPTGGGTHTCPPCPAPELLGGPSVFLFPPKPKDTLMISRTPEVTCVVVDVSHEDPEVKFNWYVDGVEVHNAKTKPREEQYNSTYRVVSVLTVLHQDWLNGKEYKCKVSNKALPVPIEKTISKAKGQPREPQVYTLPPSREEMTKNQVSLTCLVKGFYPSDIAVEWESNGQPENNYKTTPPVLDSDGSFFLYSKLTVDKSRWQQGNVFSCSVMHEALHNHYTQKSLSLSPGK
6 | 121 ng/mL | 325 ng/mL | – | – | ActRIIb-hFc (R64, 21-131) (Fc fusion) RGEAETRECIYYNANWELERTNQSGLERCEGEQDKRLHCYASWRNSSGTIELVKKGCWLDDFNCYDRQECVATEENPQVYFCCCEGNFCNERFTHLPEAGGPEVTYEPPPTGGGTHTCPPCPAPELLGGPSVFLFPPKPKDTLMISRTPEVTCVVVDVSHEDPEVKFNWYVDGVEVHNAKTKPREEQYNSTYRVVSVLTVLHQDWLNGKEYKCKVSNKALPVPIEKTISKAKGQPREPQVYTLPPSREEMTKNQVSLTCLVKGFYPSDIAVEWESNGQPENNYKTTPPVLDSDGSFFLYSKLTVDKSRWQQGNVFSCSVMHEALHNHYTQKSLSLSPGK
7 | – | – | 45 ng/mL | 2 ng/mL | ActRIIB(20-134)-hFc (Fc fusion) GRGEAETRECIYYNANWELERTNQSGLERCEGEQDKRLHCYASWRNSSGTIELVKKGCWLDDFNCYDRQECVATEENPQVYFCCCEGNFCNERFTHLPEAGGPEVTYEPPPTAPTGGGTHTCPPCPAPELLGGPSVFLFPPKPKDTLMISRTPEVTCVVVDVSHEDPEVKFNWYVDGVEVHNAKTKPREEQYNSTYRVVSVLTVLHQDWLNGKEYKCKVSNKALPVPIEKTISKAKGQPREPQVYTLPPSREEMTKNQVSLTCLVKGFYPSDIAVEWESNGQPENNYKTTPPVLDSDGSFFLYSKLTVDKSRWQQGNVFSCSVMHEALHNHYTQKSLSLSPGK
8 | 69 ng/mL | 105 ng/mL | – | – | ActRIIb-hFc (R64, 24-131) (Fc fusion) AETRECIYYNANWELERTNQSGLERCEGEQDKRLHCYASWRNSSGTIELVKKGCWLDDFNCYDRQECVATEENPQVYFCCCEGNFCNERFTHLPEAGGPEVTYEPPPTGGGTHTCPPCPAPELLGGPSVFLFPPKPKDTLMISRTPEVTCVVVDVSHEDPEVKFNWYVDGVEVHNAKTKPREEQYNSTYRVVSVLTVLHQDWLNGKEYKCKVSNKALPVPIEKTISKAKGQPREPQVYTLPPSREEMTKNQVSLTCLVKGFYPSDIAVEWESNGQPENNYKTTPPVLDSDGSFFLYSKLTVDKSRWQQGNVFSCSVMHEALHNHYTQKSLSLSPGK
